Test results from patent US5679770A, “Polypeptide, DNA fragment encoding the same, drug composition containing the same and process for producing the same” (Mochida Pharmaceutical Co., Ltd., priority 1991, dated 1997).

Assays:
human FXa = target: T1, human FXa (Homo sapiens, UniProt P00742); test: FXa-inhibiting activity (synthetic substrate S-2222); assay type: biochemical; conditions: concentration expressed as bovine trypsin-inhibiting activity; for FXa-inhibiting activity, times higher than that of polypeptide AN68: relative to control AN68; for FXa-inhibiting activity, times higher than that of polypeptide TN70: relative to control TN70
T1 construct: purchased American Diagnostica Inc
T1 sequence (P00742 235-488 limits assumed): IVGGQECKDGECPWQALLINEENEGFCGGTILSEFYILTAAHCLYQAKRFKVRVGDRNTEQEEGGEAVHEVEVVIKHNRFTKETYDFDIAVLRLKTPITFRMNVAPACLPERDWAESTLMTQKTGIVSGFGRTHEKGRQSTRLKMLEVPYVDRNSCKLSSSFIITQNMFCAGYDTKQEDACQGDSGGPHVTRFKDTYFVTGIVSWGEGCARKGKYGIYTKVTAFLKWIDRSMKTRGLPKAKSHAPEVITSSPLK
T1 sequence (P00742 41-179 partner limits assumed): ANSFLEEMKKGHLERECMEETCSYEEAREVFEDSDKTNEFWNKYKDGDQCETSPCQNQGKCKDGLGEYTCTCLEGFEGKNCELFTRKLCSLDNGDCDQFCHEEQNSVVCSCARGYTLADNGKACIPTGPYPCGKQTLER
Description: The purified polypeptide of the present invention was dissolved in 100 μl of distilled water. Polypeptide concentration of this solution was determined based on its bovine trypsin-inhibiting activity measured in accordance with the above procedure (1) using the aforementioned UTI as a standard. The thus prepared solution was then diluted to various concentration levels with 0.1% BSA/150 mM NaCl/5 mM CaCl2 /50 mM Tris-HCl buffer (pH 8.3) for use in the activity measurement. Separately from this, a polypeptide TN70 (cf. Japanese Patent Application No. 3-325220) and polypeptide AN68 were purified respectively in accordance with the procedure of Example 2(4) from a culture supernatant of E. coli JE5505(pM552) (deposit No., FERM BP-3561) and E. coli JE5505(pM594) obtained by transforming E. coli JE5505 with the aforementioned plasmid pM594 obtained in Example 4. The thus purified polypeptide TN70 and AN68 were diluted to various concentration levels to be used as control solutions.
Using a synthetic compound S-2222 (Daiichi Pure Chemicals Co., Ltd.) as a substrate, FXa-inhibiting activities in the thus prepared test sample solution and control solution were measured in accordance with the method of Ohno et al. (Ohno H. et al., Thromb. Res., vol.19, pp.579-588, 1980) as follows. First, human FXa (American Diagnostica Inc.) was dissolved in distilled water to a final concentration of 10 PEU/ml and the solution was further diluted with the aforementioned 0.1% BSA/150 mM NaCl/5 mM CaCl2 /50 mM Tris-HCl buffer (pH 8.3) to prepare 0.1 PEU/ml of FXa solution. Separately from this, a 4 mM solution of S-2222 was prepared by dissolving it in distilled water and the solution was further diluted with the 0.1% BSA/150 mM NaCl/5 mM CaCl2 /50 mM Tris-HCl buffer (pH 8.3) to obtain a 2 mM solution of S-2222.
Next, 25 μl of the test sample or control solution was mixed with 100 μl of the 0.1% BSA/150 mM NaCl/5 mM CaCl2 /50 mM Tris-HCl buffer (pH 8.3) and 25 μl of the FXa solution. After incubating statically at 37° C. for 10 minutes, 100 μl of the S-2222 solution was added to start the reaction. The reaction was carried out at 37° C. for 30 minutes and then stopped by adding 50 μl of 50% acetic acid solution to the reaction mixture. Thereafter, absorbance at a wavelength of 405 nm was measured using a spectrophotometer. In this instance, in order to eliminate absorbancy of various contents in the reaction mixture other than the reaction product, a blank solution was prepared by mixing 25 μl of the FXa solution with 50 μl of 50% acetic acid and then with 25 μl of each test sample or the control solution, 100 μl of the 0.1% BSA/150 mM NaCl/5 mM CaCl2 /50 mM Tris-HCl buffer (pH 8.3) and with 100 μl of the S-2222 solution.
The results are shown in FIG. 45 to FIG. 53 and FIG. 66. In these figures, polypeptide concentration in the reaction solution was expressed as its bovine trypsin-inhibiting activity. Also, residual human FXa activity was expressed by percentage based on the absorbance of a control reaction mixture in which 25 μl of the 0.1% BSA/150 mM NaCl/5 mM CaCl2 /50 mM Tris-HCl buffer (pH 8.3) was used instead of the test sample.

human trypsin = target: T2, human trypsin (Homo sapiens, UniProt P07477); test: Human trypsin-inhibiting activity (synthetic substrate S-2444); assay type: biochemical; conditions: purified polypeptide, various concentration levels
T2 construct: purchased Calbiochem
Description: The purified polypeptide of the present invention was dissolved in 100 μl of distilled water. Concentration of polypeptide in the thus prepared solution was determined based on its bovine trypsin-inhibiting activity measured in accordance with the above procedure (1) using UTI (Mochida Pharmaceutical Co., Ltd.; cf. H. Ohnishi et al., Nippon Yakurigaku Zasshi, vol.85, pp.1-6, 1985) as a standard. The polypeptide solution was then diluted to various concentration levels with 0.03% BSA/0.2M triethanolamine-HCl buffer (pH 7.8) for use in the activity measurement. Separately from this, human trypsin (Calbiochem) was dissolved in 1 mM HCl to a concentration of 1,000 SU/ml and the solution was further diluted with the 0.03% BSA/0.2M triethanolamine-HCl buffer (pH 7.8) to prepare a 1.25 SU/ml solution of human trypsin. Thereafter, human trypsin-inhibiting activity was measured in the same manner as described in the above procedure (1) using the aforementioned synthetic substrate S-2444. Separately from this, polypeptide AN68 (sequence described in Example 17(3)) was diluted to various concentration levels. Thereafter, human trypsin-inhibiting activity was measured in the same manner as described in the above procedure (1) and compared with the trypsin-inhibiting activity of the novel polypeptide of the present invention.

Bovine trypsin = target: T3, Bovine trypsin (Bos taurus, UniProt P00760); test: Bovine trypsin-inhibiting activity (synthetic substrate S-2444); assay type: biochemical; conditions: purified polypeptide, serially diluted
T3 construct: purchased Sigma Chemical Co. Type XIII
T3 sequence (P00760 24-246): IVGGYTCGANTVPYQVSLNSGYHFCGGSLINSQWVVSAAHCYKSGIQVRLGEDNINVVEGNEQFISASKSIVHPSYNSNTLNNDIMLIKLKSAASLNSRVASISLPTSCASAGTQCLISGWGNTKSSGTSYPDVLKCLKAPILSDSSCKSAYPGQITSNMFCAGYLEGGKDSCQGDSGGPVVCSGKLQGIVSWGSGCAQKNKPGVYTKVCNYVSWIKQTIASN
Description: The purified polypeptide of the present invention was dissolved in 100 μl of distilled water, and the solution was serially diluted with a 0.1% BSA/0.2M triethanolamine-HCl buffer (pH 7.8) for use in the activity measurement. Measurement of the trypsin-inhibiting activity in the thus prepared test sample was carried out in accordance with the Kassell's method (Kassell, B. et al., Methods in Enzymology, vol.19, pp.844-852, 1970) using a synthetic substrate S-2444 (Daiichi Pure Chemicals Co., Ltd.).
Bovine trypsin (Type XIII, Sigma Chemical Co.) was dissolved in 0.001M HCl to a final concentration of 13,600 BAEEU/ml and the solution was further diluted with 0.1% BSA/0.2M triethanolamine-HCl buffer (pH 7.8) to prepare 1.2 BAEEU/ml of trypsin solution. Separately from this, 2 mM solution of the synthetic substrate S-2444 was prepared by dissolving it in distilled water. Next, 100 μl of the test sample was mixed with 100 μl of the trypsin solution. After incubating statically at 37° C. for 10 minutes, 50 μl of the S-2444 solution was added to start the reaction. The reaction was carried out at 37° C. for 15 minutes and then stopped by adding 50 μl of 50% acetic acid solution to the reaction mixture. Thereafter, absorbance at a wavelength of 405 nm was measured using a spectrophotometer. In this instance, in order to eliminate absorbancy of various contents in the reaction mixture other than the reaction product, a blank solution was prepared by mixing 100 μl of the bovine trypsin solution with 50 μl of 50% acetic acid and then with 100 μl of each test sample and 50 μl of the S-2444 solution.

[1] = target: activated blood coagulation factor X (FXa) (Homo sapiens, UniProt P00742); conditions: background statement; cited from earlier work
Sequence of activated blood coagulation factor X (FXa) (P00742 235-488 limits assumed): as the sequence (P00742 235-488 limits assumed) above
Sequence of activated blood coagulation factor X (FXa) (P00742 41-179 partner limits assumed): as the sequence (P00742 41-179 partner limits assumed) above

Molecule	FXa-inhibiting activity, times higher than that of polypeptide AN68 (human FXa)	human trypsin inhibition (human trypsin)	bovine trypsin inhibition (Bovine trypsin)	FXa-inhibiting activity [1]	FXa-inhibiting activity, times higher than that of polypeptide TN70 (human FXa)
Q19R: formula 1 sequence with Arg for position 15 Gln; amino acids 1-68 of SEQ. I.D. NO. 6; plasmid pM735 (AACNLPIVRGPCRAFIRLWAFDAVKGKCVLFPYGGCQGNGNKFYSEK)	about six	can inhibit human trypsin in a concentration-dependent manner	can inhibit bovine trypsin in a concentration-dependent manner	–	–
polypeptide of formula 1: unsubstituted parent polypeptide whose sequence coincides with a part of UTI or Bikunins (HI-30) (CNLPIVRGPCRAFIQLWAFDAVKGKCVLFPYGGCQGNGNKFYSEKECREYC) [reference compound]	–	–	–	high FXa-inhibiting activity	–
Q19K/Y46E: formula 1 sequence with Lys for position 15 Gln and Glu for position 42 Tyr; SEQ. I.D. NO. 8; plasmid pM736 (AACNLPIVRGPCRAFIKLWAFDAVKGKCVLFPYGGCQGNGNKFESEK)	about ten	can inhibit human trypsin in a concentration-dependent manner	can inhibit bovine trypsin in a concentration-dependent manner	–	–
Q19K-AN: formula 1 sequence with Lys for position 15 Gln; amino acids 1-68 of SEQ. I.D. NO. 14; plasmid pM576B (AACNLPIVRGPCRAFIKLWAFDAVKGKCVLFPYGGCQGNGNKFYSEK)	–	can inhibit human trypsin in a concentration-dependent manner	can inhibit bovine trypsin in a concentration-dependent manner	–	–
Y46E: formula 1 sequence with Glu for position 42 Tyr; amino acids 1-70 of SEQ. I.D. NO. 2; from plasmid pM575B (TVAACNLPIVRGPCRAFIQLWAFDAVKGKCVLFPYGGCQGNGNKFESEK)	–	can inhibit human trypsin in a concentration-dependent manner	can inhibit bovine trypsin in a concentration-dependent manner	–	about seven
Q19K: formula 1 sequence with Lys for position 15 Gln; amino acids 1-70 of SEQ. I.D. NO. 4; plasmid pM576 (DDAACNLPIVRGPCRAFIKLWAFDAVKGKCVLFPYGGCQGNGNKFYSEK)	–	can inhibit human trypsin in a concentration-dependent manner	can inhibit bovine trypsin in a concentration-dependent manner	–	about five
Y46E-AN: formula 1 sequence with Glu for position 42 Tyr; amino acids 1-68 of SEQ. I.D. NO. 12; plasmid pM575C (MKQSTIALALLPLLFTPVTKA)	–	can inhibit human trypsin in a concentration-dependent manner	can inhibit bovine trypsin in a concentration-dependent manner	–	–
R11E/Y46E: formula 1 sequence with Glu for position 7 Arg and Glu for position 42 Tyr; SEQ. I.D. No. 10; plasmid pM726B (AACNLPIVEGPCRAFIQLWAFDAVKGKCVLFPYGGCQGNGNKFESEK)	about three	can inhibit human trypsin in a concentration-dependent manner	can inhibit bovine trypsin in a concentration-dependent manner	–	–
Q19R/Y46E: formula 1 sequence with Arg for position 15 Gln and Glu for position 42 Tyr; SEQ. I.D. NO. 16; plasmid pM737B (AACNLPIVRGPCRAFIRLWAFDAVKGKCVLFPYGGCQGNGNKFESEK)	about ten	can inhibit human trypsin in a concentration-dependent manner	can inhibit bovine trypsin in a concentration-dependent manner	–	–
Q19R/Y46D: formula 1 sequence with Arg for position 15 Gln and Asp for position 42 Tyr; SEQ. I.D. NO. 36; plasmid pM744 (protein) AACNLPIVRGPCRAFIRLWAFDAVKGKCVLFPYGGCQGNGNKFDSEKECREYCGVPGDGDEELLRFSN	about 18 times	can inhibit human trypsin in a concentration-dependent manner	can inhibit bovine trypsin in a concentration-dependent manner	–	–
Q19K/Y46D: formula 1 sequence with Lys for position 15 Gln and Asp for position 42 Tyr; SEQ. I.D. NO. 35; plasmid pM727 (protein) AACNLPIVRGPCRAFIKLWAFDAVKGKCVLFPYGGCQGNGNKFDSEKECREYCGVPGDGDEELLRFSN	about twenty	can inhibit human trypsin in a concentration-dependent manner	can inhibit bovine trypsin in a concentration-dependent manner	–	–
